From PMC3488213 (Nucleic Acids Research, 2012)

Target: the molecule itself
Experiment: AUC

B1: Y29W mutant of C.Esp1396I (natural protein)
chain: MESFLLSKVSFVIKKIRLEKGMTQEDLAWKSNLDRTYISGIERNSRNLTIKSLELIMKGLEVSDVVFFEMLIKEILKHD
- stoichiometry N: 2
